Molecular target: USP-AE, segment from A region to E region of Ultraspiracle (USP) of Spodoptera litura, N-terminal His tag, expressed in Escherichia coli (Spodoptera litura)
Assay: cell-based or functional assay

EcR-DF, segment from D region to F region of the molting hormone receptor (EcR) of Spodoptera litura, N-terminal His tag, expressed in Escherichia coli and refolded by gel filtration
molar ratio of EcR-DF to USP-AE at which ponasterone A binding saturates (USP-AE titrated onto a fixed amount of EcR-DF) (molar ratio EcR-DF:USP-AE (1:1)): 1

Source: patent US20060211043A1
